From patent US20220273751A1, “GPCR HETEROMER INHIBITORS AND USES THEREOF” (GPCR THERAPEUTICS, INC., priority 2019, published 2022)

Biological target: T1, CXCR4-VC (CXCR4 fused with C-terminal fragment of Venus) (human)
T1 chain: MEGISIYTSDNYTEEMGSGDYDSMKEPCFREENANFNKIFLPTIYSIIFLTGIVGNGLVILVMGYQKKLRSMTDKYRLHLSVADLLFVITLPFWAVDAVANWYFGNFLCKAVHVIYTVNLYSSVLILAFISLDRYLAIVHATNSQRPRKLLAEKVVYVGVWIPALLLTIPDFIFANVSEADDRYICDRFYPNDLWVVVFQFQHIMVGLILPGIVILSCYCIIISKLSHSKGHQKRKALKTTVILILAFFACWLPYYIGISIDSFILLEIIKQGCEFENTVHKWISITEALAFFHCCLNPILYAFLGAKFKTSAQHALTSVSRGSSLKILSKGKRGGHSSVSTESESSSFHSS
Experiment: BiFC, U-2 OS cells co-transduced with adenoviruses (30 MOI each)
Conditions: remark: other sources report otherwise; scale: BiFC score =

B1: CXCR4-VN (CXCR4 fused with N-terminal fragment of yellow fluorescent protein Venus), P61072 1-352 (receptor, not shown: small tags and cut ends)
chain: T1 chain
modifications: here or on the partner: Venus N-terminal fragment (VN) fused to the receptor. Its letters are not given, so it is left out.; Venus C-terminal fragment (VC) fused to the receptor. Its letters are not given, so it is left out.
B1 gave a BiFC score of 9.9.
